Results on one protein are retold here after publication PMC12027964, “Centrifugation-Based Purification Protocol Optimization Enhances Structural Preservation of Nucleopolyhedrovirus Budded Virion Envelopes” (Insects, 2025).

This series concerns the molecule itself. Description: cryo-EM structure; GP64 solubilised from purified BV particles with DDM/CHS, SEC fraction B in TN buffer (50 mM Tris-HCl pH 8, 150 mM NaCl) with 0.02% DDM and 0.002% CHS, about 1 mg/mL; single-particle reconstruction (7913 particles, 15 Å); prefusion GP64 model PDB 8YG6 fitted into the map.

B1: GP64 envelope fusion protein of Autographa californica multiple nucleopolyhedrovirus (AcMNPV) (natural protein)
chain: AEHCNAQMKTGPYKIKNLDITPPKETLQKDVEITIVETDYNENVIIGYKGYYQAYAYNGGSLDPNTRVEETMKTLNVGKEDLLMWSIRQQCEVGEELIDRWGSDSDDCFRDNEGRGQWVKGKELVKRQNNNHFAHHTCNKSWRCGISTSKMYSRLECQDDTDECQVYILDAEGNPINVTVDTVLHRDGVSMILKQKSTFTTRQIKAACLLIKDDKNNPESVTREHCLIDNDIYDLSKNTWNCKFNRCIKRKVEHRVKKRPPTWRHNVRAKYTEGDTATKGDLMHIQEELMYENDLLKMNIELMHAHINKLNNMLHDLIVSVAKVDERLIGNLMNNSVSSTFLSDDTFLLMPCTNPPAHTSNCYNNSIYKEGRWVANTDSSQCIDFSNYKELAIDDDVEFWIPTIGNTTYHDSWKDASGWSFIAQQKSNLITTMENTKFGGVGTSLSDITSMAEGELAAKLTSFMFGHVVNFVIILIVILFLYCMIRNRNRQY
notes: Native viral protein, no tag; also called prefusion GP64; Frac B; source: purified from recombinant AcMNPV budded virions produced in Sf9 cells (1% DDM / 0.1% CHS extraction, Superdex 200 SEC)
On to B1, for which the “stoichiometry N” value turned out to be 3.

By stoichiometry N is commonly meant the number of molecules, sites or subunits per partner or assembly.
